Consider 2 molecules from US20250011379A1 (VERTEX PHARMACEUTICALS, published 2025).

In this assay the target is soluble human C3b (human, UniProt P01024 23-1663, limits assumed). The assay is described as follows: cell-based or functional assay.
soluble human C3b, sequence (P01024 23-1663 limits assumed): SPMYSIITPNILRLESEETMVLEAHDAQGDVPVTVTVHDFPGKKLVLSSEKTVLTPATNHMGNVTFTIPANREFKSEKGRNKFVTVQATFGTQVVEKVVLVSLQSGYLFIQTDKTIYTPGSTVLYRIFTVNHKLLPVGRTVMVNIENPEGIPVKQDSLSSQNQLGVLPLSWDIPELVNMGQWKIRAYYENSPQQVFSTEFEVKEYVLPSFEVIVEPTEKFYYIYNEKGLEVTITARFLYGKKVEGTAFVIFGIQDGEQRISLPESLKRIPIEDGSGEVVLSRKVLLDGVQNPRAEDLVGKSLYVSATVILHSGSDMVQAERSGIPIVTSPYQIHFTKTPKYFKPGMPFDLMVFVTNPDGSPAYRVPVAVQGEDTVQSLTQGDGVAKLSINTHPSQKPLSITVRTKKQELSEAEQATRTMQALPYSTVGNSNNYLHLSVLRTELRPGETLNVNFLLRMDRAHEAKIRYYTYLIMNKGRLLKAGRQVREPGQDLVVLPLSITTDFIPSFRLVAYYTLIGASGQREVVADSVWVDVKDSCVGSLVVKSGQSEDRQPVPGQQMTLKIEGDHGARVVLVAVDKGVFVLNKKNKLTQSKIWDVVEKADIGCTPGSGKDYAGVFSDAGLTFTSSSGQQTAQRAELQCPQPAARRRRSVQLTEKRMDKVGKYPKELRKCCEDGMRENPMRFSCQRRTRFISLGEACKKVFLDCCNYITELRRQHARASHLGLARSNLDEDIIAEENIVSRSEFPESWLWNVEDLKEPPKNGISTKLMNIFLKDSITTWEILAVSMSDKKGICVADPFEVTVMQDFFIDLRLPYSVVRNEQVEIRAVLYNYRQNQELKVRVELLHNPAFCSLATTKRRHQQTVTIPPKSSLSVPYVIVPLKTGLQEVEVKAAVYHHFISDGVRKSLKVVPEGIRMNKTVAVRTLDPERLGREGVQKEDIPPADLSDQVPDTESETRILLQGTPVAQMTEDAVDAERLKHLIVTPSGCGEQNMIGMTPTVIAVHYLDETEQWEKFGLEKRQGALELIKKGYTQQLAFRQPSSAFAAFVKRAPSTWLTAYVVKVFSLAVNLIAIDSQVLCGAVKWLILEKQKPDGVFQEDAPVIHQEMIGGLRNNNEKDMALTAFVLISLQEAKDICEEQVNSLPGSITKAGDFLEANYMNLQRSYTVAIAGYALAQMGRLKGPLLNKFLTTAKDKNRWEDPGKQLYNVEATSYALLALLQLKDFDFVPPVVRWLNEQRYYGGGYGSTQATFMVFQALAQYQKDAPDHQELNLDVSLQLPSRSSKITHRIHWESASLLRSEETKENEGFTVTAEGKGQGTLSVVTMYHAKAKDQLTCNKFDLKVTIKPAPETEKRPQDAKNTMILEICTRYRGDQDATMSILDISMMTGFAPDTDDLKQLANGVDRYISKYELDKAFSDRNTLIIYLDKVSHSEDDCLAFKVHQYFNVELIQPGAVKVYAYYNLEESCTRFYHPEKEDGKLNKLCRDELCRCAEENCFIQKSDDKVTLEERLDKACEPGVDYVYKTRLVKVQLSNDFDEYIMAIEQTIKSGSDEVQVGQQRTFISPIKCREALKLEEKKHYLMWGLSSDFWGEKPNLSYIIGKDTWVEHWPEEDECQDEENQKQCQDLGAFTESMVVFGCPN

B1: Const. No. 94: hCFI-PD (wild type plasma-derived human CFI) (enzyme)
chain: KVTYTSQEDLVEKKCLAKKYTHLSCDKVFCQPWQRCIEGTCVCKLPYQCPKNGTAVCATNRRSFPTYCQQKSLECLHPGTKFLNNGTCTAEGKFSVSLKHGNTDSEGIVEVKLVDQDKTMFICKSSWSMREANVACLDLGFQQGADTQRRFKLSDLSINSTECLHVHCRGLETSLAECTFTKRRTMGYQDFADVVCYTQKADSPMDDFFQCVNGKYISQMKACDGINDCGDQSDELCCKACQGKGFHCKSGVCIPSQYQCNGEVDCITGEDEVGCAGFASVTQEETEILTADMDAERRRIKSLLPKLSCGVKNRMHIRRKRIVGGKRAQLGDLPWQVAIKDASGITCGGIYIGGCWILTAAHCLRASKTHRYQIWTTVVDWIHPDLKRIVIEYVDRIIFHENYNAGTYQNDIALIEMKKDGNKKDCELPRSIPACVPWSPYLFQPNDTCIVSGWGREKDNERVFSLQWGEVKLISNCSKFYGNRFYEKEMECAGTYDGSIDACKGDSGGPLVCMDANNVTYVWGVVSWGENCGKPEFPGVYTKVANYFDWISYHVGRPFISQYNV
For the molecule B1, the “iC3b EC50” value stood at 50.1 nM.

B2: Const. No. 96: hCFI (wt hCFI, no signal sequence, no HSA) (enzyme)
chain: B1 chain
Consider B2, for which the “iC3b EC50” value came to 62.4 nM.
